In this experiment the target is T1, TACI ligand (TACI-L), expressed on transfected cells (Homo sapiens (Human), UniProt Q9Y275 1-285).
T1 construct: cDNA of TACI-L transfected into cells on slides and into CV1 cells (flow cytometry); also called Neutrokine alpha; TL5
Kind of experiment: slide binding assay on cDNA-transfected cells. As to the method: […] by adding 2 μg of the DNA encoding the members of the ligand family to a sterile tube and adding 75 μM choloroquine in transfection/growth medium to a final volume of 175 μl. 25 μl of DEAE-dextran (4 mg/ml in PBS) was then added to the DNA solution and mixed.
The growth medium was aspirated from the slides and replaced with 3 ml of 75 μM chloroquine in the transfectionfgrowth medium, followed by the addition of the DNA/DEAE-dextran mixture to the cells. The slides were rocked side-to-side and back-and-forth to distribute the precipitated DNA evenly. The slides were incubated at 37° C. for 4.5 hours.
To screen for positive pools expressing the cell-bound protein, slides were incubated with TACI:Fc and then with a radioiodinated protein probe (labeled goat anti-human Fc F(ab′)2) for 30 minutes at room temperature. The probe solution is then removed by aspiration and washed to remove the non-specifically bound probe. Finally, the slides were fixed by incubating each slide with 1 ml 2.5% glutaraldehyde in PBS for 30 minutes at room temperature to retain specifically bound label. The slides were then washed twice with 1 ml PBS and air-dried.

T1 sequence (Q9Y275 whole entry): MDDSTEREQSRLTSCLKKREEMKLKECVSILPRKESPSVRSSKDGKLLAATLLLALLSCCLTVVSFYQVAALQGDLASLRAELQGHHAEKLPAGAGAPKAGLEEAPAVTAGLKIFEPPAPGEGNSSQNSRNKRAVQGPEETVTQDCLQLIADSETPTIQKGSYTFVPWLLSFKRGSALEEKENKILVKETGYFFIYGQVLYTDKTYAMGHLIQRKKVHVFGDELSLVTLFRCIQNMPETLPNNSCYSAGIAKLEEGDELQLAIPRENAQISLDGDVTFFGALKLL

B1: TACI-Fc (Fc fusion)
chain: SGLGRSRRGGRSRVDQEERFPQGLWTGVAMRSCPEEQYWDPLLGTCMSCKTICNHQSQRTCAAFCRSLSCRKEQGKFYDHLLRDCISCASICGQHPKQCAYFCENKLRSPVNLPPELRRQRSGEVENNSDNSGRYQGLEHRGSEASPALPGLKLSADQVALVYST
notes: also called HuTACI/Fc; Fc chimera; not shown: Fc portion of human IgG1, fused in-frame at the 3' end
For the molecule B1, the binding result is “binds”.

Source of the values: US20030165986A1 (IMMUNEX, published 2003).
